We go through 4 molecules from patent US20260022170A1 (published 2026).

Usually Kd stands for the equilibrium constant for the complex coming apart. The term EC50 denotes the concentration needed to bring the measured effect to its halfway point.

Assay [1] has as its target human Siglec-9 protein (recombinant; construct not stated) (UniProt Q9Y336 18-344). Briefly: BLI. (In general: BLI is a label-free optical method that tracks binding on a fibre tip over time.)
Assay [2] concerns the target recombinant Siglec-9 (SinoBiological, 30109-H03H) (UniProt Q9Y336 18-348). Briefly: ELISA. Background: An ELISA detects its analyte on a solid surface through an enzyme-linked reagent.
The target of assay [3] is recombinant human Siglec-9 protein (UniProt Q9Y336 18-348). Description: ELISA.
recombinant human Siglec-9 protein, sequence (Q9Y336 18-348): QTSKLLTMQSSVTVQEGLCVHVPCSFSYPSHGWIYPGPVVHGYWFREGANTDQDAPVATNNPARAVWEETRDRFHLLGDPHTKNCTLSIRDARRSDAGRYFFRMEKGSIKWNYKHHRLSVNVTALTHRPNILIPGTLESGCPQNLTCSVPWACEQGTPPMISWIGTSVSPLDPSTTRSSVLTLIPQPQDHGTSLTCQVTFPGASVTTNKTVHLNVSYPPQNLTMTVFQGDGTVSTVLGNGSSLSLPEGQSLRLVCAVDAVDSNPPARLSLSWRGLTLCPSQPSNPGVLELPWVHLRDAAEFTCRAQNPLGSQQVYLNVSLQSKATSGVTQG

human Siglec-9 protein (recombinant; construct not stated), sequence (Q9Y336 18-344): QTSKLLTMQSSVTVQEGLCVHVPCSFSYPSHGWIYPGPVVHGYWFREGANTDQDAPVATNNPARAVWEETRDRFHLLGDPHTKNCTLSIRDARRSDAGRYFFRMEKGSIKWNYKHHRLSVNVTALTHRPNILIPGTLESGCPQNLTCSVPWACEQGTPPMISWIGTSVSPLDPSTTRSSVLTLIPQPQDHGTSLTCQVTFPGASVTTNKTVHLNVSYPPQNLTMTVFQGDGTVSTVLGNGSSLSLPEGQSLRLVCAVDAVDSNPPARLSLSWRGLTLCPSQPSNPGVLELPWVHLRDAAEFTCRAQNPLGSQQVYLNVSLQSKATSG
recombinant Siglec-9 (SinoBiological, 30109-H03H), sequence (Q9Y336 18-348): as the sequence (Q9Y336 18-348) above

B1: anti-Siglec-9 monoclonal antibody clone ED2D5 (antibody, V domains shown)
VH: EVQLVESGGGLVKPGGSLKLSCAASGFTFSDYYMYWVRQTPEKRLEWVATISDGGSDTYYPDNMKGRFTISRDNAKNNLYLQMSSLKSEDTAMYYCTRDPDYDDGRFAYWGQGTLVTVSA
VL: DIVMTQSHKFMSTSVGDRVSITCKASQDVGTVVAWYQQKSGQSPKLLIYWSSTRHTGVPDRFTGSGSGTDFTLTISNVQSEDLADYFCQQYIDYPLSFGAGTKLELK
Turning to B1, in assay [1], the Kd is 38 nM.

B2: anti-Siglec-9 monoclonal antibody clone CB6B3 (parental mouse antibody) (antibody, V domains shown)
VH: EVQLQQSGAEVVRPGALVKLSCKAAGFNIKDYFIHWVKQRPEQGLEWIGLIDPENDNTMYDPRFQVKASLTADTSSNTAYLQLSRLTSEDAAVYYCASTVVARSFDYWGQGTTLTVSS
VL: SIVMTQTPKFLLVSAGDRVTITCKASQSVSNDVAWYQQKSGQSPKLLIYYTSNRYTGVPDRFTGSGYGTDFTFTISTVQAEDLAVYFCQQDFRSPFTFGAGTKLELK
As to B2, the Kd in assay [1] was 80 nM.

B3: humanised CB6B3 (huCB6B3) (antibody, V domains shown)
VH: EVQLVQSGAEVKKPGATVKISCKVSGYTFTDYFIHWVQQAPGKGLEWMGLIDPENDNTMYDPRFQVRVTITADTSTDTAYMELSSLRSEDTAVYYCASTVVARSFDYWGQGTTVTVSS
VL: AIQMTQSPSSLSASVGDRVTITCKASQSVSNDVAWYQQKPGKAPKLLIYYTSNRYTGVPSRFSGSGSGTDFTLTISSLQPEDFATYYCQQDFRSPFTFGGGTKVEIK
For B3, the EC50 in assay [2] was found to be 0.13 nM.

B4: Benchmark-3 (antibody, V domains shown)
VH: QSLEESGGRLVKPDETLTITCTVSGIDLSSYDMTWVRQAPGKGLEWIGIIYTGGLTYYASWAKGRFTISKTSTTVDLKITSPTTEDTATYFCAREVGDNNNFWGPGTLVTVSS
VL: DVVMTQTPASVSEPVGGTVTIKCQASESVDSGLAWYHQKPGQPPKLLIYDDTDLASGVPSRFKGSRSGTAHTLTISDLECADAATYYCQYTDYGRTYVGTFGGGTEVVIKG
As to B4, the EC50 in assay [3] was found to be 0.157 nM.
